Experimental data taken from PMC1747184 (Nucleic Acids Research, 2006).

Molecular target: MutSα (MSH2–MSH6) (human (endogenous in HCT-116), UniProt P43246;P52701)
Experiment: pull-down

MutSα (MSH2–MSH6), sequence (P43246 whole entry, chain 1 of 2): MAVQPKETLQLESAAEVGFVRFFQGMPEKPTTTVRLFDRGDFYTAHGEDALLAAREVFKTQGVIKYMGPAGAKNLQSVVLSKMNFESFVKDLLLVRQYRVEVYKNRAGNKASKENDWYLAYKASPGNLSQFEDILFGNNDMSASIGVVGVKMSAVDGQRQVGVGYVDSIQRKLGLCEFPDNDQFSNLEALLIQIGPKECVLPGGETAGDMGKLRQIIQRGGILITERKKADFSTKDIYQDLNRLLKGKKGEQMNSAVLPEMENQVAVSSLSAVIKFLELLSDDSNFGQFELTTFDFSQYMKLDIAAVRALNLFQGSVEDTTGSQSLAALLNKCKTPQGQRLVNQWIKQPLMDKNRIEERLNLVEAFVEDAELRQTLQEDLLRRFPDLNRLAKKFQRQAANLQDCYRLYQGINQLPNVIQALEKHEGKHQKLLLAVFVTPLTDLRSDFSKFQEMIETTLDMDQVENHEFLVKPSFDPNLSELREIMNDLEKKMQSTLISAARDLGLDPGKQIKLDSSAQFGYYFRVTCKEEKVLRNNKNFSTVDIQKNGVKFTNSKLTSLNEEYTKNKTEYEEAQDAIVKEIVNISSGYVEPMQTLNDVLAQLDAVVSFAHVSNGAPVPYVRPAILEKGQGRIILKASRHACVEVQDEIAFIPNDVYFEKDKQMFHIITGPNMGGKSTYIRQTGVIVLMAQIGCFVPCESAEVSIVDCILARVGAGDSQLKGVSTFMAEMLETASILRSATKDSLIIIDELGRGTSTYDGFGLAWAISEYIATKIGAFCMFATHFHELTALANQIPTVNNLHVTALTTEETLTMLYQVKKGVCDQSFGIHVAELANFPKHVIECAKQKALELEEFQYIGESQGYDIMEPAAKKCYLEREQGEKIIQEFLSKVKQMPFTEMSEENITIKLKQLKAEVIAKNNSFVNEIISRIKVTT
MutSα (MSH2–MSH6), sequence (P52701 whole entry, chain 2 of 2): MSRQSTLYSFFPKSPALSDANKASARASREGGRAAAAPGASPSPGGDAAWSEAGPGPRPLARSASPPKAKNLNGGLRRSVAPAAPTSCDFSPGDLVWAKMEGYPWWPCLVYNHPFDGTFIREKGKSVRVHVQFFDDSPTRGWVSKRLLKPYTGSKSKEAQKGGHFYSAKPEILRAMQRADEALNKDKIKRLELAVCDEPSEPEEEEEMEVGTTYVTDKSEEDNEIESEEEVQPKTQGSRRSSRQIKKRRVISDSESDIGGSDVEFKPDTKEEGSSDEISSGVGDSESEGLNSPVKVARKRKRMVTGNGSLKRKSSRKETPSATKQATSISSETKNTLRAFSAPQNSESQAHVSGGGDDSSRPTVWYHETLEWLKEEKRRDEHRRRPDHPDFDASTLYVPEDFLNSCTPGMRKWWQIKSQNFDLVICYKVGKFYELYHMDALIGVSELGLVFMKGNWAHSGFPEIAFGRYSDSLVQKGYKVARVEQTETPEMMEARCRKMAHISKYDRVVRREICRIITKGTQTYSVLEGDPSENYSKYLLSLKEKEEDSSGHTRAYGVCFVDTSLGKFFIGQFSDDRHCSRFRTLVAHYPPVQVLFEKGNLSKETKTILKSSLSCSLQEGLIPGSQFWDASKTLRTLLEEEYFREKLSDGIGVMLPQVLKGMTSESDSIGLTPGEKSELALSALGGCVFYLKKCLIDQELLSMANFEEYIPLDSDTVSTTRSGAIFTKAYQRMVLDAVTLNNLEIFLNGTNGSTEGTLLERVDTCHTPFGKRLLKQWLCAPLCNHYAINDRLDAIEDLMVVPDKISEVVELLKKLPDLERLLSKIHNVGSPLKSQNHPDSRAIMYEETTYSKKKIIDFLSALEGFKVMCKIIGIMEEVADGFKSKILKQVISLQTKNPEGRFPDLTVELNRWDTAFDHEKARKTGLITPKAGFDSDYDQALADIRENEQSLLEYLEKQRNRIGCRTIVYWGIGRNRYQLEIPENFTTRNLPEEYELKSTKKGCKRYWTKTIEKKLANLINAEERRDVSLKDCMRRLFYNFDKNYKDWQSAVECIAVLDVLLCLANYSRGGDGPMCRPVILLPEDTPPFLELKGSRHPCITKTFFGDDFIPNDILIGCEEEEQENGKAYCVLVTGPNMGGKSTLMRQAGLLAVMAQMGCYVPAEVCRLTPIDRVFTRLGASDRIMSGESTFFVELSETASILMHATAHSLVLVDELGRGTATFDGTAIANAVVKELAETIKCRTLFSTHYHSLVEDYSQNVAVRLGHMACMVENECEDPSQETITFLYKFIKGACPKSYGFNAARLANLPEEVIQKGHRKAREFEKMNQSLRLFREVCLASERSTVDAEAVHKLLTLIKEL

B1: MutLα^(MLH1 A128P) (complex)
chain 1: MSFVAGVIRRLDETVVNRIAAGEVIQRPANAIKEMIENCLDAKSTSIQVIVKEGGLKLIQIQDNGTGIRKEDLDIVCERFTTSKLQSFEDLASISTYGFRGEALASISHVAHVTITTKTADGKCAYRPSYSDGKLKAPPKPCAGNQGTQITVEDLFYNIATRRKALKNPSEEYGKILEVVGRYSVHNAGISFSVKKQGETVADVRTLPNASTVDNIRSIFGNAVSRELIEIGCEDKTLAFKMNGYISNANYSVKKCIFLLFINHRLVESTSLRKAIETVYAAYLPKNTHPFLYLSLEISPQNVDVNVHPTKHEVHFLHEESILERVQQHIESKLLGSNSSRMYFTQTLLPGLAGPSGEMVKSTTSLTSSSTSGSSDKVYAHQMVRTDSREQKLDAFLQPLSKPLSSQPQAIVTEDKTDISSGRARQQDEEMLELPAPAEVAAKNQSLEGDTTKGTSEMSEKRGPTSSNPRKRHREDSDVEMVEDDSRKEMTAACTPRRRIINLTSVLSLQEEINEQGHEVLREMLHNHSFVGCVNPQWALAQHQTKLYLLNTTKLSEELFYQILIYDFANFGVLRLSEPAPLFDLAMLALDSPESGWTEEDGPKEGLAEYIVEFLKKKAEMLADYFSLEIDEEGNLIGLPLLIDNYVPPLEGLPIFILRLATEVNWDEEKECFESLSKECAMFYSIRKQYISEESTLSGQQSEVPGSIPNSWKWTVEHIVYKALRSHILPPKHFTEDGNILQLANLPDLYKVFERC
chain 2: MERAESSSTEPAKAIKPIDRKSVHQICSGQVVLSLSTAVKELVENSLDAGATNIDLKLKDYGVDLIEVSDNGCGVEEENFEGLTLKHHTSKIQEFADLTQVETFGFRGEALSSLCALSDVTISTCHASAKVGTRLMFDHNGKIIQKTPYPRPRGTTVSVQQLFSTLPVRHKEFQRNIKKEYAKMVQVLHAYCIISAGIRVSCTNQLGQGKRQPVVCTGGSPSIKENIGSVFGQKQLQSLIPFVQLPPSDSVCEEYGLSCSDALHNLFYISGFISQCTHGVGRSSTDRQFFFINRRPCDPAKVCRLVNEVYHMYNRHQYPFVVLNISVDSECVDINVTPDKRQILLQEEKLLLAVLKTSLIGMFDSDVNKLNVSQQPLLDVEGNLIKMHAADLEKPMVEKQDQSPSLRTGEEKKDVSISRLREAFSLRHTTENKPHSPKTPEPRRSPLGQKRGMLSSSTSGAISDKGVLRPQKEAVSSSHGPSDPTDRAEVEKDSGHGSTSVDSEGFSIPDTGSHCSSEYAASSPGDRGSQEHVDSQEKAPKTDDSFSDVDCHSNQEDTGCKFRVLPQPTNLATPNTKRFKKEEILSSSDICQKLVNTQDMSASQVDVAVKINKKVVPLDFSMSSLAKRIKQLHHEAQQSEGEQNYRKFRAKICPGENQAAEDELRKEISKTMFAEMEIIGQFNLGFIITKLNEDIFIVDQHATDEKYNFEMLQQHTVLQGQRLIAPQTLNLTAVNEAVLIENLEIFRKNGFDFVIDENAPVTERAKLISLPTSKNWTFGPQDVDELIFMLSDSPGVMCRPSRVKQMFASRACRKSVMIGTALNTSEMKKLITHMGEMDHPWNCPHGRPTMRHIANLGVISQN
Q: Which “fold decrease of binding against wild-type MutLα” value does the source give for B1 here?
A: Its value is roughly 5 fold.
